Laboratory results reported in article PMC3798605, “Independent Pathways Can Transduce the Life-Cycle Differentiation Signal in Trypanosoma brucei” (PLoS Pathogens, 2013).

Target: TbPTP1
Experiment: SPR
Conditions: 2 mM citrate, 25°C, 10 mM HEPES, pH 7.4, 150 mM NaCl, 0.05% P20, 2 mM DTT, 20 mM MgCl2; for kon: parent: 0.0012; for koff: parent: 0.05; for Kd: parent: 42

Substance | kon [M⁻¹ s⁻¹] | koff [s⁻¹] | Kd [µM]
TbPIP39 wild type DD mutant | 1200 | 0.05 | 42
TbPIP39 wild type D57A | 1300 | 0.04 | 31
TbPIP39 wild type T63A; V64A | 1100 | 0.03 | 30
